Results as given in US20150196663A1.

Target: rat transferrin receptor (rat) (UniProt Q99376)
Assay: cell-based or functional assay

Chain of UniProt Q99376 (Q99376 whole entry): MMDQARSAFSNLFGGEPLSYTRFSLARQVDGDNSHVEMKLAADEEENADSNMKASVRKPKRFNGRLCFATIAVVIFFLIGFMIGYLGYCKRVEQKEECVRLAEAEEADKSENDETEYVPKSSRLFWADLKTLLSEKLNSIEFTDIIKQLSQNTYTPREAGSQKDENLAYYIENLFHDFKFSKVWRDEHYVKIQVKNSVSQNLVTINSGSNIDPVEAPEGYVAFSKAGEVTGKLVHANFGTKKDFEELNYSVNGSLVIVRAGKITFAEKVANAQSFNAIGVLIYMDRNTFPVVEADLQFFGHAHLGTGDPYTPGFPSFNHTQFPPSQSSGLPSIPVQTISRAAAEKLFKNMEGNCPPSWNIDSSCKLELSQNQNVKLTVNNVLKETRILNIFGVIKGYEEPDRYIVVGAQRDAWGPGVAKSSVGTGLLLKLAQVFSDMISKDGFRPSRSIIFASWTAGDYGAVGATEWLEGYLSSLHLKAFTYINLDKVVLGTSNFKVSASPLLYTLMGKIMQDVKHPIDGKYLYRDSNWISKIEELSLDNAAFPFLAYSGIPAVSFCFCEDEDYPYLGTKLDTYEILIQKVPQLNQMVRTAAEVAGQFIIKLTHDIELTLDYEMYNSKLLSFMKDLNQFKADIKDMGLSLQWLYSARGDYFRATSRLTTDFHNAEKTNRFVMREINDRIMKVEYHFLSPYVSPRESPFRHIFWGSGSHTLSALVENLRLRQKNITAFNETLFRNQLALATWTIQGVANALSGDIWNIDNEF

percentage of RBE4 cells exhibiting multiple internalized vesicles per cell: 92%
percentage of primary BMECs exhibiting multiple internalized vesicles per cell: 46%
Substance: OX-26, positive control antibody against the rat transferrin receptor (AbD Serotec, # MCA155G)
